In a protein production outcome set (Wang et al. 2014) one finds protein production data, which are given here for 24 sequences.

The series in a line: label from the status in PepcDB records.
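Also: failed if final PepcDB status was selected cloned or expressed and not failed if soluble or beyond.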

“MIGQAILLGCIAFIAQSEYALGTSLLSRPIVTGLFVGIVLGDVKTGVIMGATLELAFIGSFSVGASIPPDVVTGGILGTAFAITAGAGTETALVLGLPIATLTLILKNIYLGLLIPIMSQKADQYAEEGAYKGVERMHLLAGFGLSFMLALIVTISFAVGSNTIKGLLDLIPEFIQHGLSVATGIIPALGFAMLARLLINKQVAPYFFLGFVLMAYFKLPVTGVAILGAITAVIVVNIMNYAKGKNETIQTTSGEVIDDDEDF”: the protein production entry was “failed”.
Then “MIGVITSLTGGAILRNPAVLLIPLIYLVGRRSRDLTYLLFVMYTIITFQFVEVKELISYETIKTTLMAIIPSLLALKESIEGKKLQKTDLYYLPLFFLGVLRDYFYYLGLIIAGLLHIENFHSILIPAAVFSLIISPALVGELIELPGEYISIIMAGSLLVIYLVFQPTRR”, with “failed”; and “MIHADPESAMPAAYAATPFAQRLGLTLPVVQAPMAGVSTPALAAAVSNAGGLGSLGLGAMNADAARQAIALTREQTTRPFNVNLFCHAPATADAAREARWLQYLAPRFAEFDAQPPATLREVYTSFLADDDMFDMLLAERPEVVSLHFGLPPASRIAALRQAGIYLMATATDMREAARIAAAGVDAIVAQGIEAGGHRGMFDPAARDEQLGTLALTRLLARRFDAPVIAAGGIMDGAGVAAVLALGAQAAQLGTAFISCPESSADMPHRHALLDQAEVATTLTRAISGRPARSIANRYTELGAAADCPPTPDYPIAYDAGKALHAAARARGDASYAAQWAGQAAALSRGVPAATLMRQLQAELNDCIGRLAR”, with “failed”.
Then “MIHDDQKPSSSLDLQEIRIQIDSVDQQIQELINRRATLAEAVAKAKFASEENPLFYRPEREAQVLRKVMERNQGPLSDVTMARLFREIMSACLALEAPQSIAFLGPEGTFTQSAALKHFGKDAVVRPLPTIDEVFREVEAGSAHYGVVPVENSSEGVVNHTLDCFRTSQLNVIGEVELRIHHQFLVSHNTRKDSIKQIYAHQQALAQCRQWLDTHYPGVERVALSSNAEAARRIRNEWHSAAIASDIAASMYDLEIFHSNIEDNPENTTRFLVIGREKIPQSGNDKTSLLISAHDRAGALLEILAPFAKHKISLTSIETRPALPEKWAYVFFIDLEGHIEQENVAAAIDDIRPLVKELRILGSYPAAVL”, with “failed”.
The result for “MIIEYLQLVGLGLVTMLPVANPLTSTTLLLALGSGFTRDERNRQIGRATVYVAAIILASFYAGNAIISSFGISIPGLRIAGGLIVAYIGFTMLFPATSQNEAQAQVEMAPDDPHIQVPGAAHTGPRPRDISFVPLALPGTAGPGTIALIISSASTLHSHGGITLIHHFAVITVTLLLALLFWACLRSAERVMRMLGQSGIDAISRVMGFLLICMGVQFIIDGVFELIRHPPGA” reads “failed”; that for “MIIIELNKRQEHIIQIVKDHGPITGESIAAQLGLTRATLRPDLAILTMAGYLEARPRVGYFYTGKTGGQLLSEAVKKIKVQDYQSRPVVIDKNVSVYDAICTMFLEDVGTLFVVDQSTLLVGVVSRKDLLRASLGKQDLTSLPVNIIMTRMPNIAMCRREDSLYDIAMELIERQIDAMPVVKDTKQGLEVVGRITKTNITRAFVNLVNNE”, “failed”; that for “MIILDNLEQFKVVYRDGRKWNRCVEAIENIGNLRDGIMYSIGDSLVYMIEDGIAKNTETFVGNRRYFDIHYYLEGRETVEVASKSELESVQAYSDETDREHLNGNGQKHQLCEGQVAVFDNTKAYKFHGDNRVRKVVLKVTIEDGYFLNK”, “failed”.
Turning to “MIILGQALYQKDQFAEAAKCLEQAASKLLDTSPTEVEEVDLLIVASQWAGVSNIRQGKTSEGITHLERVANMKEPDDPKSKAHYLDALVLYSSAIFNEGRREEAAKYLRRVVAYDPSFSELLKQCEEDDTIPTSSSSNSTSKTS”, the protein production entry is “failed”.
Then “MIINDPVKITGIVDILIIIIFTSLGFRGFLRGFIKEISGFAEVFVLILLLYKKTEEFRRFVEPIIELSYIQALLVFFLLIHIGFLILQSLIESIISQLKLLFFNRILGLVLGLLEAFGIIAIVVYIIHSQQIFKPEYFLKESKLLDYLNPGINYLFKISKTK”, with “failed”; and “MIIPGIAAAETCPDGYKNVSVCKAEKMVEKEDVFLLDVRTPAEFNKTHIEGTILIPVKNVPAQDPVELSSDELLEVRINEVPADEKILVYCKSGARSAAACSLLVSNGYRKVYNMRGGIDCWLARGCTVDVNADKADELLGTGEFFLLDVRTPAEFNAGYIEGAILIPLKNVPKEDPVELPPEKLLAQCLCEIPENKPILVYCKSGTRSDAARDLLVDSGYRHVYNLEGGILTWKAEGYPTVCPAI”, with “failed”.
The result for “MIIRIKHYGEVKIEDSKNLLLNLIENRIGIDNICNGKGTCGKCKVRFRQGVPEATSADLRYLSVEELEEGVRLACQVKPQKGMEIDVTLSNSFDRKLEHHHHHH” reads “not failed”; that for “MIISELVHNNLRGGNKTHNLELKLPVKPVIGGSSSEDDAIVADASSLMHGDNPGLEFRHKELEAPLIPQRTHSLLYQPQKKVKPEATDSYVSQLTAEADDHLQSPNRDSLYTSMPNLRDSPYPESSPDMAEDLSPSRRSENEDIYYKSMPNLGAGRHLHMCYQISRGNSDGYIIPINKEGCIPEGDVREGQMQLVTSL”, “failed”; that for “MIITIARQCGCMGDQIGKALAEKYFIPFYDKDAVCRLAKEKGLYEKYPYFYGEMPLDMLLYADTMAGDDTTDNGKTPRKAMADIIGNENCVVVGRCGNNAFRHREDVISVFLTGNKEKRVELIEKKHNVSPKKAAKIVEDTDLRRRSYHNYYTGEEWGNAEYYDICIDVSKVGEDGALRLIEAYINETGVL”, “failed”.
Then “MIIVMSRRAAEADIAGVVAFIRSRGLREHISHGDERTVIGAIGDDRVLSVREVQTLPEVEKAVRILDTWKTVSRENRAEDSRVAAKGVAFGGGETVRIAAEPSVWSNADAVFLDPFFTSANLYDTLSADEGRGRCRRLAEQAASAHGAGKPVLVRVRNVRHVEAALNAGADILYLGGGLMSDLAVLNEAGSLNIPLVLCKDKHHSAEDWLNAAEYVVSRGNRHLILGESGVLGHTKGHPYRLDVESIVKVRQISHLPVIANITGLWSRDMPQEILYGLAKAAGACGIVGTCFEKAGG”, with “failed”; and “MIIVTGATGKLGRRIVERLLERVPADRVGVSVRDPRKAQDLADRGVRVRQGSFDDPASLVHAFEGAEQLLLVSLDRTGQECVSGHRAAIDAAVKAGVGRILYTSQMGAAHDSRFQACRDHAQTEDLLRATGLPWTALRNGFYASSALQFLESARHTGDIALPADGPVAWTGHDDLAEATAAILAEEHRFEGPTPPLTGPAALDFDTVAEIASQTTGRPFTRTVVPDDAFREQVLAHGAPAPIGNLMLSIFAAARNGEFTAVDSTLAELIGREPATFRTQLEHAWAE”, with “failed”.
With “MIKEQSFEWLLEGCHRIADVAVAYYPNYAYACSAVKALRRSIAEHACLLKDLTDQGYTARTAHLTPVQIGILLSYWGMPDHVKDMTVKNPYLLVSKKYAK”, the protein production result is “failed”.
Then “MIKFMSIASGSSGNCYYLSNGNQALLIDAGIPLRSISKALKDHQLPIEGNVVGVLVTHDHADHIRTIGCLGEKFHLPVFATERVHNGINSSRYMDHLPLLSRRNILQEETFRLAGFDITAFPIPHDATENVGYHITAPGFSFTLCTDVGHITDTISHYASKADYLVMEANYDCEMLLSGPYPEFLKERVSGPNGHLSNQETGDFLARTFHPGMKHVWLCHLSKDNNHPDLCWKSIEYRLFSEGIRVGKDMELTVLKRTSPSSLYTLLEDLEHHHHHH”, with “not failed”; and “MIKGNKMASFSQVSFSIPQRVIHWAMALLIFFNLLFPDAMAHAYRLMRRGETLTPDQISSANIHAYVGFAILLLAVLRLCLRFFQGVPPHPAEEPRASQIAAKAAHFTFYVLFFILPLSGIAAYYFGIATAGELHSGPFKAVMWVLIAGHVAAVLVHQFYWRTNVLKRMTHG”, with “failed”; and “MIKGNNGNRGSSSSGYSADLLVCFPSRTHLALTPKPICSPSRPSDSSTNRRPHHRRQLSKLSGGGGGGHGSPVLWAKQASSKNMGGDEIAEPTSPKVTCAGQIKVRPSKCGGRGKNWQSVMEEIERIHDNRSQSKFFGLKKDVMGFLTCLRNIKFDFRCFGDFRHADVTSDDDEEEDDDDDEEEEVVEGEEEENSKTVFSKWFMVLQEEQNNKDDDKNNNKCDEKRDLEDTETEPAVPPPNALLLMRCRSAPAKSWLEERMKVKTEQEKREEQKEEKETEDQETSMKTKKKDLRSLMEEEKMELVLMRYDTEFYRLSSDIAKETWVVGGIQDPLSRSRSWKN”, with “failed”.
“MIKHYLFMAVSQVFFSFFLVLFFISSIVLLISIASVTLVIKVSFLDLVQLFLYSLPGTIFFILPITFFAACALGLSRLSYDHELLVFFSLGVSPKKMTKVFAPLSLLVSAILLVFSLILIPTSKSTYYGFLRQKKDKIDINIRAGEFGQKLGDWLVYVDKTKNNSYDNLVLFSNKSLSQESFILAQKGNINNQNGVFELNLYNGHAYFTQGDKMRKVDFEELHLRNKLKSFNSNDAAYLQGTDYLGYWKKAFGKNANKNQKRRFSQAILVSLFPLASVFLIPLFGIANPRFKTNWSYFYVLGAVGVYFLMVHVISTDLFLMTFFFPFIWAFASYLLFRKFILKRY”: the protein production entry is recorded as “failed”.
With “MIKILETESSLGWGGQENRTARLINHLDPTRFRVYVATPKDSELYKRRQEIRAEFFPVEMRKSYSLKAIWQLYKIIKKERIDIVSTHSGKDAWLGVIAARLAGVKAIRTRHLQTPISSPLSYNLHDKVVCVSDFVKEDLAKRGVQKGRLCTIHTGVDVSKYAPHREGILRRELGLREEEILVGIVAVLRGAKGHKLLLEAFAKLSSSTARLVIIGDGPQRENIALIVEQLNLQERVVMLGHREDVAKIMPDLDIFVLSSSMEALGTAILEASACGVAVLGSNVGGIPECVRENGQLFEAGDSDSLVKNLQALINDTSKRKERGAKGRVLVEEEFSVEAMVRKTEGLYREIITPQKILIVSNTALGDTILSTPLFRETRLALPKAHITALLNPVNAMLFETNPYLDKIELYGGRWRGFLGAWWKLWRRGFDVALLGHSNDPQITPLCLLLGISKIIKIPNHKNPWQRFHHNPPASPIEDQYAVLTRLLTLKYIGIESSNTRLELFLKEEWTTEAKEILRPFGQKKLIGIQMGASNRSRQWFVERWIELAKRIIERDEEVVIVFVGSKNELEEISLVAQALPQDRVFISAGRLSLGAAAALIGELGLLFTPDTGPLHIAVALRVKTISLFAVANPKNSLPDYDQSLHRYIKVDRCCEPCVGKRCAYQKCMEAIGVDEVYEEYKKLQE”, the protein production entry was “failed”.
The result for “MIKLSSITAHILDIWHRRNSRSYIAHLRSLGIRIGDGCIFRDPLTTRIDVSRPALVSIGSNVDMNTYFQILTHDWASFVFRNKYHDFVNSSGRVEIGSNIYIGTNVIVLRGVTIGDNCVIGAGSVVTHDIPANSVAVGAPCRVVCSLEHHHHHH” reads “not failed”; that for “MIKMIVVLRLGHRPERDKRVTTHVALTARAFGADGIIIASEEDEKVKESVEDVVKRWGGPFFIEFNRNWRKVMKEFTGVKVHLTMYGLHVDDVIEELKEKLKKGEDFMIIVGAEKVPREVYELADYNVAIGNQPHSEVAALAVLLDRLLEGKGLKKEFKGAKIKIVPQARGKKVVEVQGYAEQDKAEGKATPGKNWENSGFTGDNP”, “not failed”; that for “MIKPSNYQPPYTITPAIVNLVAEIGEIIGRYTVLAEQNLTPRLRRENRIRTIQASLAIENNTLTLEQVTAVIDGKRVLGHPREIQEVRNAFATYEAMEDWDASVEGDLLAAHELLMRGLVDETGRYRSGGVGIFRGEQLVHMAPPADRVPKLMADLLDWLENTNEHPLVASCIFHYEFEFIHPFADGNGRMGRLWQTLILRNWKPLLAYLPVETVIRDRQEDYYRVLAVADSQADATPFVEFMLGALRDAVREAVSTDHVGDQVTDQVAALIRAIGGGELSSNDLMQALGLSHRPTFRNNYLNPAMEDEWIERTQPDSPRSPTQRYRLTGKGQRWLQHHADE”, “not failed”.
